Experimental data taken from US20100278929A1.

B1: A17d4(1) monoclonal antibody (antibody, V domains shown)
VH: QVTLRESGPALVKPTQTLTLTCTFSGFSLSTAGMSVGWIRQPPGKALEWLADIWWDGKKSYNPSLKDRLTISKDTSKNQVVLKVTNMDPADTATYYCARDMIFNFYFDVWGQGTTVTVSS
VL: DIQMTQSPSTLSASVGDRVTITCLPSSRVGYMHWYQQKPGKAPKLLIYDTMYQSSGVPSRFSGSGSGTEFTLTISSLQPDDFATYYCFQGSGYPFTFGGGTKVEIK
B2: A4B4 Fab fragment (Fab, V domains shown)
VH: QVTLRESGPALVKPTQTLTLTCTFSGFSLSTAGMSVGWIRQPPGKALEWLADIWWDDKKHYNPSLKDRLTISKDTSKNQVVLKVTNMDPADTATYYCARDMIFNFYFDVWGQGTTVTVSS
VL: DIQMTQSPSTLSASVGDRVTITCSASSRVGYMHWYQQKPGKAPKLLIYDTFFLDSGVPSRFSGSGSGTEFTLTISSLQPDDFATYYCFQGSGYPFTFGGGTKVEIK
B3: A13c4 Fab fragment (Fab, V domains shown)
VH: QVTLRESGPALVKPTQTLTLTCTFSGFSLSTAGMSVGWIRQPPGKALEWLADIWWDGKKSYNPSLKDRLTISKDTSKNQVVLKVTNMDPADTATYYCARDMIFNFYFDVWGQGTTVTVSS
VL: DIQMTQSPSTLSASVGDRVTITCSLSSRVGYMHWYQQKPGKAPKLLIYDTMYQSSGVPSRFSGSGSGTEFTLTISSLQPDDFATYYCFQGSGYPFTFGGGTKVEIK
B4: P12f4 Fab fragment (Fab, V domains shown)
VH: QVTLRESGPALVKPTQTLTLTCTFSGFSLSTPGMSVGWIRQPPGKALEWLADIWWDGKKHYNPSLKDRLTISKDTSKNQVVLKVTNMDPADTATYYCARDMIFNFYFDVWGQGTTVTVSS
VL: DIQMTQSPSTLSASVGDRVTITCSLSSRVGYMHWYQQKPGKAPKLLIYDTRGLPSGVPSRFSGSGSGTEFTLTISSLQPDDFATYYCFQGSGYPFTFGGGTKVEIK
B5: A1e9 Fab fragment (Fab, V domains shown)
VH: QVTLRESGPALVKPTQTLTLTCTFSGFSLSTAGMSVGWIRQPPGKALEWLADIWWDGKKHYNPSLKDRLTISKDTSKNQVVLKVTNMDPADTATYYCARDMIFNWYFDVWGQGTTVTVSS
VL: DIQMTQSPSTLSASVGDRVTITCSLSSRVGYMHWYQQKPGKAPKLLIYDTFKLSSGVPSRFSGSGSGTEFTLTISSLQPDDFATYYCFQGSGYPFTFGGGTKVEIK
B6: P11d4 monoclonal antibody (antibody, V domains shown)
VH: QVTLRESGPALVKPTQTLTLTCTFSGFSLSTPGMSVGWIRQPPGKALEWLADIWWDGKKHYNPSLKDRLTISKDTSKNQVVLKVTNMDPADTATYYCARDMIFNWYFDVWGQGTTVTVSS
VL: DIQMTQSPSTLSASVGDRVTITCSPSSRVGYMHWYQQKPGKAPKLLIYDTMRLASGVPSRFSGSGSGTEFTLTISSLQPDDFATYYCFQGSGYPFTFGGGTKVEIK
B7: A4B4 monoclonal antibody (antibody, V domains shown)
VH: QVTLRESGPALVKPTQTLTLTCTFSGFSLSTAGMSVGWIRQPPGKALEWLADIWWDDKKHYNPSLKDRLTISKDTSKNQVVLKVTNMDPADTATYYCARDMIFNFYFDVWGQGTTVTVSS
VL: DIQMTQSPSTLSASVGDRVTITCSASSRVGYMHWYQQKPGKAPKLLIYDTFFLDSGVPSRFSGSGSGTEFTLTISSLQPDDFATYYCFQGSGYPFTFGGGTKVEIK
B8: A8c7 Fab fragment (Fab, V domains shown)
VH: QVTLRESGPALVKPTQTLTLTCTFSGFSLSTAGMSVGWIRQPPGKALEWLADIWWDDKKSYNPSLKDRLTISKDTSKNQVVLKVTNMDPADTATYYCARDMIFNWYFDVWGQGTTVTVSS
VL: DIQMTQSPSTLSASVGDRVTITCSPSSRVGYMHWYQQKPGKAPKLLIYDTRYQSSGVPSRFSGSGSGTEFTLTISSLQPDDFATYYCFQGSGYPFTFGGGTKVEIK
B9: P12f2 Fab fragment (Fab, V domains shown)
VH: QVTLRESGPALVKPTQTLTLTCTFSGFSLSTPGMSVGWIRQPPGKALEWLADIWWDDKKHYNPSLKDRLTISKDTSKNQVVLKVTNMDPADTATYYCARDMIFNFYFDVWGQGTTVTVSS
VL: DIQMTQSPSTLSASVGDRVTITCSLSSRVGYMHWYQQKPGKAPKLLIYDTFYLSSGVPSRFSGSGSGTEFTLTISSLQPDDFATYYCFQGSGYPFTFGGGTKVEIK
B10: A17d4(1) Fab fragment (Fab, V domains shown)
VH: QVTLRESGPALVKPTQTLTLTCTFSGFSLSTAGMSVGWIRQPPGKALEWLADIWWDGKKSYNPSLKDRLTISKDTSKNQVVLKVTNMDPADTATYYCARDMIFNFYFDVWGQGTTVTVSS
VL: DIQMTQSPSTLSASVGDRVTITCLPSSRVGYMHWYQQKPGKAPKLLIYDTMYQSSGVPSRFSGSGSGTEFTLTISSLQPDDFATYYCFQGSGYPFTFGGGTKVEIK
B11: P12f4 monoclonal antibody (antibody, V domains shown)
VH: QVTLRESGPALVKPTQTLTLTCTFSGFSLSTPGMSVGWIRQPPGKALEWLADIWWDGKKHYNPSLKDRLTISKDTSKNQVVLKVTNMDPADTATYYCARDMIFNFYFDVWGQGTTVTVSS
VL: DIQMTQSPSTLSASVGDRVTITCSLSSRVGYMHWYQQKPGKAPKLLIYDTRGLPSGVPSRFSGSGSGTEFTLTISSLQPDDFATYYCFQGSGYPFTFGGGTKVEIK
B12: A12a6 monoclonal antibody (antibody, V domains shown)
VH: QVTLRESGPALVKPTQTLTLTCTFSGFSLSTAGMSVGWIRQPPGKALEWLADIWWDGKKDYNPSLKDRLTISKDTSKNQVVLKVTNMDPADTATYYCARDMIFNFYFDVWGQGTTVTVSS
VL: DIQMTQSPSTLSASVGDRVTITCSASSRVGYMHWYQQKPGKAPKLLIYDTFKLSSGVPSRFSGSGSGTEFTLTISSLQPDDFATYYCFQGSGYPFTFGGGTKVEIK
B13: A8c7 monoclonal antibody (antibody, V domains shown)
VH: QVTLRESGPALVKPTQTLTLTCTFSGFSLSTAGMSVGWIRQPPGKALEWLADIWWDDKKSYNPSLKDRLTISKDTSKNQVVLKVTNMDPADTATYYCARDMIFNWYFDVWGQGTTVTVSS
VL: DIQMTQSPSTLSASVGDRVTITCSPSSRVGYMHWYQQKPGKAPKLLIYDTRYQSSGVPSRFSGSGSGTEFTLTISSLQPDDFATYYCFQGSGYPFTFGGGTKVEIK
B14: A13a11 Fab fragment (Fab, V domains shown)
VH: QVTLRESGPALVKPTQTLTLTCTFSGFSLSTAGMSVGWIRQPPGKALEWLADIWWDDKKHYNPSLKDRLTISKDTSKNQVVLKVTNMDPADTATYYCARDMIFNWYFDVWGQGTTVTVSS
VL: DIQMTQSPSTLSASVGDRVTITCSPSSRVGYMHWYQQKPGKAPKLLIYDTYRHSSGVPSRFSGSGSGTEFTLTISSLQPDDFATYYCFQGSGYPFTFGGGTKVEIK
B15: A1h5 Fab fragment (Fab, V domains shown)
VH: QVTLRESGPALVKPTQTLTLTCTFSGFSLSTAGMSVGWIRQPPGKALEWLADIWWDGKKHYNPSLKDRLTISKDTSKNQVVLKVTNMDPADTATYYCARDMIFNWYFDVWGQGTTVTVSS
VL: DIQMTQSPSTLSASVGDRVTITCSLSSSVGYMHWYQQKPGKAPKLLIYDTFFHRSGVPSRFSGSGSGTEFTLTISSLQPDDFATYYCFQGSGYPFTFGGGTKVEIK
B16: A1e9 monoclonal antibody (antibody, V domains shown)
VH: QVTLRESGPALVKPTQTLTLTCTFSGFSLSTAGMSVGWIRQPPGKALEWLADIWWDGKKHYNPSLKDRLTISKDTSKNQVVLKVTNMDPADTATYYCARDMIFNWYFDVWGQGTTVTVSS
VL: DIQMTQSPSTLSASVGDRVTITCSLSSRVGYMHWYQQKPGKAPKLLIYDTFKLSSGVPSRFSGSGSGTEFTLTISSLQPDDFATYYCFQGSGYPFTFGGGTKVEIK
B17: A13c4 monoclonal antibody (antibody, V domains shown)
VH: QVTLRESGPALVKPTQTLTLTCTFSGFSLSTAGMSVGWIRQPPGKALEWLADIWWDGKKSYNPSLKDRLTISKDTSKNQVVLKVTNMDPADTATYYCARDMIFNFYFDVWGQGTTVTVSS
VL: DIQMTQSPSTLSASVGDRVTITCSLSSRVGYMHWYQQKPGKAPKLLIYDTMYQSSGVPSRFSGSGSGTEFTLTISSLQPDDFATYYCFQGSGYPFTFGGGTKVEIK
B18: P12f2 monoclonal antibody (antibody, V domains shown)
VH: QVTLRESGPALVKPTQTLTLTCTFSGFSLSTPGMSVGWIRQPPGKALEWLADIWWDDKKHYNPSLKDRLTISKDTSKNQVVLKVTNMDPADTATYYCARDMIFNFYFDVWGQGTTVTVSS
VL: DIQMTQSPSTLSASVGDRVTITCSLSSRVGYMHWYQQKPGKAPKLLIYDTFYLSSGVPSRFSGSGSGTEFTLTISSLQPDDFATYYCFQGSGYPFTFGGGTKVEIK
B19: A12a6 Fab fragment (Fab, V domains shown)
VH: QVTLRESGPALVKPTQTLTLTCTFSGFSLSTAGMSVGWIRQPPGKALEWLADIWWDGKKDYNPSLKDRLTISKDTSKNQVVLKVTNMDPADTATYYCARDMIFNFYFDVWGQGTTVTVSS
VL: DIQMTQSPSTLSASVGDRVTITCSASSRVGYMHWYQQKPGKAPKLLIYDTFKLSSGVPSRFSGSGSGTEFTLTISSLQPDDFATYYCFQGSGYPFTFGGGTKVEIK

These binders were tested against RSV (Long strain) F protein on infectious virus (respiratory syncytial virus (Long strain)) (UniProt P12568) (assay: cell-based or functional assay).
Sequence of RSV (Long strain) F protein on infectious virus (respiratory syncytial virus (Long strain)) (P12568 26-574): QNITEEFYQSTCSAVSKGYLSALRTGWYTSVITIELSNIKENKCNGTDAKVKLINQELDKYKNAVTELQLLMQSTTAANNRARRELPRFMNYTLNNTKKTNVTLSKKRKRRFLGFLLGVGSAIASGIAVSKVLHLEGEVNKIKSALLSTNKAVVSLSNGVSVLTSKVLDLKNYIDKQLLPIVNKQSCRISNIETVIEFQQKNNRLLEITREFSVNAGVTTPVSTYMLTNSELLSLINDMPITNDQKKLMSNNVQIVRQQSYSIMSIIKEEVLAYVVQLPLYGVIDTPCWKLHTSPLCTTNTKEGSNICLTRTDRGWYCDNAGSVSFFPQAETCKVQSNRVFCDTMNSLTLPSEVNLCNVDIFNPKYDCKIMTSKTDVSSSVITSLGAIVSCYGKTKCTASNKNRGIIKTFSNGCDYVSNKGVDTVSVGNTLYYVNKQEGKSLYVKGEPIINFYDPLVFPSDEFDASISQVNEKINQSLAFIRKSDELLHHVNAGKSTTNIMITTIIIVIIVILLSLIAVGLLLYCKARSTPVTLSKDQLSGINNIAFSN
In the case of B1, the Fold Difference (Control IC50), against palivizumab is reported as 15 fold and the Fold Difference (Curve IC50), against palivizumab is reported as 13 fold.
B2 showed a Fold Difference (Control IC50), against palivizumab of 13 fold and a Fold Difference (Curve IC50), against palivizumab of 11 fold.
B3 was tested, and the Fold Difference (Control IC50), against palivizumab was 21 fold and the Fold Difference (Curve IC50), against palivizumab was 17 fold.
In the case of B4, the Fold Difference (Control IC50), against palivizumab is reported as 15 fold and the Fold Difference (Curve IC50), against palivizumab is reported as 10 fold.
Work on B5 yielded a Fold Difference (Control IC50), against palivizumab of 4 fold and a Fold Difference (Curve IC50), against palivizumab of 3 fold.
B6 was tested, and the Fold Difference (Control IC50), against palivizumab was 19 fold and the Fold Difference (Curve IC50), against palivizumab was 21 fold.
B7 showed a Fold Difference (Control IC50), against palivizumab of 35 fold and a Fold Difference (Curve IC50), against palivizumab of 27 fold.
Work on B8 yielded a Fold Difference (Control IC50), against palivizumab of 34 fold and a Fold Difference (Curve IC50), against palivizumab of 3 fold.
Binder B9 has a Fold Difference (Control IC50), against palivizumab of 16 fold and a Fold Difference (Curve IC50), against palivizumab of 11 fold.
B10 was tested, and the Fold Difference (Control IC50), against palivizumab was 31 fold and the Fold Difference (Curve IC50), against palivizumab was 25 fold.
B11 was tested, and the Fold Difference (Control IC50), against palivizumab was 23 fold and the Fold Difference (Curve IC50), against palivizumab was 19 fold.
Binder B12 has a Fold Difference (Control IC50), against palivizumab of 15 fold and a Fold Difference (Curve IC50), against palivizumab of 13 fold.
For B13, the Fold Difference (Control IC50), against palivizumab was 14 fold and the Fold Difference (Curve IC50), against palivizumab was 13 fold.
B14 gave a Fold Difference (Control IC50), against palivizumab of 5 fold and a Fold Difference (Curve IC50), against palivizumab of 4 fold.
Work on B15 yielded a Fold Difference (Control IC50), against palivizumab of 3 fold and a Fold Difference (Curve IC50), against palivizumab of 2 fold.
B16 showed a Fold Difference (Control IC50), against palivizumab of 8 fold and a Fold Difference (Curve IC50), against palivizumab of 7 fold.
B17 was tested, and the Fold Difference (Control IC50), against palivizumab was 14 fold and the Fold Difference (Curve IC50), against palivizumab was 12 fold.
In the case of B18, the Fold Difference (Control IC50), against palivizumab is reported as 24 fold and the Fold Difference (Curve IC50), against palivizumab is reported as 20 fold.
In the case of B19, the Fold Difference (Control IC50), against palivizumab is reported as 17 fold and the Fold Difference (Curve IC50), against palivizumab is reported as 16 fold.
